This is an account of results in PMC11384143 (2024).

First the molecules themselves.
B2: 6 × His tagged huSIRPγ ECD recombinant protein (domain or fragment)
chain: EEELQMIQPEKLLLVTVGKTATLHCTVTSLLPVGPVLWFRGVGPGRELIYNQKEGHFPRVTTVSDLTKRNNMDFSIRISSITPADVGTYYCVKFRKGSPENVEFKSGPGTEMALGAKPSAPVVLGPAARTTPEHTVSFTCESHGFSPRDITLKWFKNGNELSDFQTNVDPTGQSVAYSIRSTARVVLDPWDVRSQVICEVAHVTLQGDPLRGTANLSEAIRVPPTLEVTQQPMRVGNQVNVTCQVRKFYPQSLQLTWSENGNVCQRETASTLTENKDGTYNWTSWFLVNISDQRDDVVLTCQVKHDGQLAVSKRLALEVTVHQKDQSSDATP

Assay [1] deals with T1, 6 × His tagged huSIRPα V1 ECD recombinant protein (human, UniProt P78324 31-373). Kind of assay: SPR. On the technique in general: Surface plasmon resonance follows binding to a sensor surface in real time, without labels.
Assay [2] deals with T1, 6 × His tagged huSIRPα V1 ECD …. Kind of assay: SPR. This is another data set of the same source.
Assay [3] concerns the target huSIRPα V1 overexpressed on CHOK1/hSIRPα V1 cells (human, UniProt P78324 31-504). The assay is described as follows: FACS; competition with huCD47 ECD. For orientation: Flow cytometry measures light scatter and fluorescence of single cells or particles in a stream.
Assay [4] addresses ES004-B5. Kind of assay: SPR.
In assay [5] the target is ES004-B5. Kind of assay: SPR. This is another data set of the same source.
Assay [6] has as its target B2. Kind of assay: SPR.
Assay [7] has as its target B2. Kind of assay: SPR.
The target of assay [8] is huSIRPα V2 overexpressed on CHOK1/hSIRPα V2 cells (human, UniProt P78324 31-504). The assay is described as follows: FACS; competition with huCD47 ECD.

Where two headings read alike, the source gives them in different places.

T1 sequence (P78324 31-373): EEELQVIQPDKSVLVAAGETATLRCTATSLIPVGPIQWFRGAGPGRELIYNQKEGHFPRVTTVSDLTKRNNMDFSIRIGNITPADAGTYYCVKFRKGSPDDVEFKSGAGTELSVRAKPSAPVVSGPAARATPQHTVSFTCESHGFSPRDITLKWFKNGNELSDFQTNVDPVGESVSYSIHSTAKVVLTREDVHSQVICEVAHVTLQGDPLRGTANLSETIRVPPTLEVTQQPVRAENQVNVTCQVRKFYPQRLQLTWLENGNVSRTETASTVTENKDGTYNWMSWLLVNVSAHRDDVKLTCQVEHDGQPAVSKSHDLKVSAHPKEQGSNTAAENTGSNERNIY
Chain of huSIRPα V1 overexpressed on CHOK1/hSIRPα V1 cells (P78324 31-504): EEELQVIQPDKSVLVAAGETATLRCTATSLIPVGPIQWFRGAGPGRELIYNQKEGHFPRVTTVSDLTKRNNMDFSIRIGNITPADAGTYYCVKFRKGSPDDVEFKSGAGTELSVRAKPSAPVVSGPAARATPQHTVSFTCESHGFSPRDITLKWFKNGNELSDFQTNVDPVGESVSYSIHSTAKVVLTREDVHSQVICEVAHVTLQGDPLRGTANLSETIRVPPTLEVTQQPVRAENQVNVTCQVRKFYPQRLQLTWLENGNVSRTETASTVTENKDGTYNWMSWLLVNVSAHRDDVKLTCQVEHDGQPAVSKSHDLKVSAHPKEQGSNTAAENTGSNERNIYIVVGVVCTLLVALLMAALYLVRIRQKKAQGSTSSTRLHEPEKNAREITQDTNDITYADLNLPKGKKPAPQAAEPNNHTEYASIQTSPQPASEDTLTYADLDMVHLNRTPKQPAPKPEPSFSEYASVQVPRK
Chain of huSIRPα V2 overexpressed on CHOK1/hSIRPα V2 cells (P78324 other isoform, or with tags, fused parts or gaps): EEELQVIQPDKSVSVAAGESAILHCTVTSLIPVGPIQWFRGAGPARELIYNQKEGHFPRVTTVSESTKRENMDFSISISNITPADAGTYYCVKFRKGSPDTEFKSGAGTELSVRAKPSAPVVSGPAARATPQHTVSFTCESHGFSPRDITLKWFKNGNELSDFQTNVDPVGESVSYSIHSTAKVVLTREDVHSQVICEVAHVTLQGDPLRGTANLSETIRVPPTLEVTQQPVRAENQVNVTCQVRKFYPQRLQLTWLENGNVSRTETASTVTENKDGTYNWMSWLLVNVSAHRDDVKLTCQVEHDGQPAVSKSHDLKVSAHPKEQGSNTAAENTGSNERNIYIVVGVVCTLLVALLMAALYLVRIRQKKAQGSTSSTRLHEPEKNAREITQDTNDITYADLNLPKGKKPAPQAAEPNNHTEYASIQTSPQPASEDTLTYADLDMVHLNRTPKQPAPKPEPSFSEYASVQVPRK

B1: HEFLB (an analogue of BI 765063) (antibody, V domains shown)
VH: EVQLVQSGAEVKKPGESLRISCKASGYSFTSYWVHWVRQMPGKGLEWMGNIDPSDSDTHYSPSFQGHVTLSVDKSISTAYLQLSSLKASDTAMYYCVRGGTGTLAYFAYWGQGTLVTVSS
VL: DVVMTQSPLSLPVTLGQPASISCRSSQSLVHSYGNTYLYWFQQRPGQSPRLLIYRVSNRFSGVPDRFSGSGSGTDFTLKISRVEAEDVGVYYCFQGTHVPYTFGGGTKVEIK
In the case of B1, the koff (commonly a measure of how fast the partners let go of each other) in assay [1] turned out to be 0.00631 s⁻¹. Further, the Kd – broadly, the equilibrium constant for the complex coming apart – in assay [2] is 12.8 nM. Further, in assay [3], the IC50 – broadly, the concentration at which inhibition is half-maximal – amounted to 1.29 nM.
Consider B2, for which, in assay [4], the Kd worked out at 2.81 nM and the koff amounted to 0.00422 s⁻¹.

B3: 6 × His tagged cynomolgus SIRPα ECD recombinant protein (domain or fragment)
chain: EEELQVIQPEKSVSVAAGDSATLNCTVSSLIPVGPIQWFRGAGPGRELIYNLKEGHFPRVTPVSDPTKRNNMDFSIRISNITPADAGTYYCVKFRKGSPDVELKSGAGTELSVRAKPSAPVVSGPAVRATAEHTVSFTCESHGFSPRDITLKWFKNGNELSDVQTNVDPAGKSVSYSIRSTARVVLTRRDVHSQVICEVAHVTLQGDPLRGTANLSEAIRVPPFLEVTQQSMRADNQVNVTCQVTKFYPQRLQLTWLENGNVSRTEMASALPENKDGTYNWTSWLLVNVSAHRDDVKLTCQVEHDGQPAVNKSFSVKVSAHPKEQGSNTAAENTGTNERN
In assay [5], B3 had a Kd of 6.01 nM and a koff of 0.00729 s⁻¹.

B4: hu1H9 (an analogue of FSI-189, Gilead) (antibody, V domains shown)
VH: QVQLVQSGAEVKKPGASVKVSCKASGYTFTSYWITWVKQAPGQGLEWIGDIYPGSGSTNHIEKFKSKATLTVDTSISTAYMELSRLRSDDTAVYYCATGYGSSYGYFDYWGQGTLVTVSS
VL: DIQMTQSPSSLSASVGDRVTITCRASENIYSYLAWYQQKPGKAPKLLIYTAKTLAEGVPSRFSGSGSGTDFTLTISSLQPEDFATYYCQHQYGPPFTFGQGTKLEIK
Turning to B4, the koff turned out to be 0.0135 s⁻¹ in assay [6] and 0.00187 s⁻¹ in assay [1]. Further, the Kd in assay [7] was 20.7 nM; in assay [2], 1.91 nM. Further, the IC50 in assay [3] was 1.17 nM; in assay [8] it was 6.04 nM.
